Results from patent US20250326842A1.

What was measured:
Human C1q (human) = Human C1q (human) (UniProt P02745); assay: ELISA: plate coated with increasing amounts of antibody, human C1q at 8 µg/mL, anti-C1q antibody detection
FcγRI (human) = FcγRI (human) (UniProt P12314); assay: Biacore, KD from kinetic constants (koff/kon)
FcγRIIA R131 (human) = FcγRIIA R131 (human) (UniProt P12318); assay: Biacore, KD from equilibrium analysis
FcγRIIIA F158 (human) = FcγRIIIA F158 (human) (UniProt P08637); assay: Biacore, KD from equilibrium analysis
FcγRIIA H131 (human) = FcγRIIA H131 (human) (UniProt P12318); assay: Biacore, KD from equilibrium analysis
FcγRIIB (human) = FcγRIIB (human) (UniProt P31994); assay: Biacore, KD from equilibrium analysis
FcγRIIB (human), sequence (P31994 46-217 limits assumed): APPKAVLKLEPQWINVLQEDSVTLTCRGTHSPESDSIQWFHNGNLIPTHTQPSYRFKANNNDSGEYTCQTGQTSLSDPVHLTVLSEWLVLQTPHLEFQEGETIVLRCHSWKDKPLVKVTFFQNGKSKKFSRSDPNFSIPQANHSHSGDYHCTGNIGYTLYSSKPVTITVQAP

FcγRIIA R131 (human), sequence (P12318 36-218 H167R limits assumed): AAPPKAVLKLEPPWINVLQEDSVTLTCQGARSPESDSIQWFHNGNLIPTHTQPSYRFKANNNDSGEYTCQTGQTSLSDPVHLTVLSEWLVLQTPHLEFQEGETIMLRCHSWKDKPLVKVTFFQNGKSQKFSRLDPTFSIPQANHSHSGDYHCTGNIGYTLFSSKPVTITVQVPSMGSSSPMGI
Human C1q (human), sequence (P02745 23-245 limits assumed, chain 1 of 3): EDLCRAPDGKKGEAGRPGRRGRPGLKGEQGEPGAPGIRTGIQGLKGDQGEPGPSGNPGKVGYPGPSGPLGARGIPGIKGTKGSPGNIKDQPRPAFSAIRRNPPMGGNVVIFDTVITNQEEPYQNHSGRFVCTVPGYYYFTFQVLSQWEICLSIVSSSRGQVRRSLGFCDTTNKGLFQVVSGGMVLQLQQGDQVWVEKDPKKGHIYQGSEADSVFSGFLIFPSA
Human C1q (human), sequence (P02746 28-253 limits assumed, chain 2 of 3, further chain): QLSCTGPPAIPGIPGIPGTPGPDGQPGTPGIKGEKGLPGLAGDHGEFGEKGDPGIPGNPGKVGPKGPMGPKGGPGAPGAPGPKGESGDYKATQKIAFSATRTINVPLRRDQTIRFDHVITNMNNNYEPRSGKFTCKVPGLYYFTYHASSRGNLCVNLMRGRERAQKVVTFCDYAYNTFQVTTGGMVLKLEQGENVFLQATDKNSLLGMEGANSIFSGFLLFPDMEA
Human C1q (human), sequence (P02747 29-245 limits assumed, chain 3 of 3, further chain): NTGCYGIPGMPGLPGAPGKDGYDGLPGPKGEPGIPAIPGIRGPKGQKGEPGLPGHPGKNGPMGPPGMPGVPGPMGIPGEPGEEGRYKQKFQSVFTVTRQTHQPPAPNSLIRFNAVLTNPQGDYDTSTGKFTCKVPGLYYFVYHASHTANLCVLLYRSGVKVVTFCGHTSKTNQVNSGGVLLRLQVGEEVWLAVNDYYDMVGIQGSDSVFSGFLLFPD
FcγRI (human), sequence (P12314 16-288 limits assumed): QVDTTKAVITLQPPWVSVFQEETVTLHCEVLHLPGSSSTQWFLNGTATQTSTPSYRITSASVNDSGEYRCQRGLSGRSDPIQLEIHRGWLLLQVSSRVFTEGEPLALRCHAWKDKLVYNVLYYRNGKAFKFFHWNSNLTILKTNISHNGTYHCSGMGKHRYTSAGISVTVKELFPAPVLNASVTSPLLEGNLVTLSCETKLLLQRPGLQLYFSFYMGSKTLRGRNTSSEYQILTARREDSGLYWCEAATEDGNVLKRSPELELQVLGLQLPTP
FcγRIIIA F158 (human), sequence (P08637 17-208 limits assumed): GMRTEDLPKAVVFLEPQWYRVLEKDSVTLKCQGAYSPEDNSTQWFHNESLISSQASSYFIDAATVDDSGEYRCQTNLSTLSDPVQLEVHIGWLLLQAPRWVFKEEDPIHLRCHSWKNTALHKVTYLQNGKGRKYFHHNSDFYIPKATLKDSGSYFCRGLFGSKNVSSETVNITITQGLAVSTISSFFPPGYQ
FcγRIIA H131 (human), sequence (P12318 36-218 limits assumed): as the sequence (P12318 36-218 H167R limits assumed) above, with R132H counted along it

Substance HuIgG (antibody) has an EC50 (read off the curve) (Human C1q (human)) of 2 µg/mL, a Kd (FcγRI (human)) of 2.7 nM and a Kd (FcγRIIA R131 (human)) of 481 nM. It also gave a Kd (FcγRIIIA F158 (human)) of 691 nM, a Kd (FcγRIIA H131 (human)) of 379 nM and a Kd (FcγRIIB (human)) of 3120 nM.
